Laboratory results from PMC6748131, “BFL1 modulates apoptosis at the membrane level through a bifunctional and multimodal mechanism showing key differences with BCLXL” (Cell Death and Differentiation, 2018).
One block for each binder: values may come before it.

Columns and labels:
BFL1ΔC L21A, Q16548 [1] = biological target: T1, BFL1ΔC L21A, Q16548; assay: FCCS; details: chain shown with the change; 100% CL GUV; parent: est. 37; read off a plot
T1 chain: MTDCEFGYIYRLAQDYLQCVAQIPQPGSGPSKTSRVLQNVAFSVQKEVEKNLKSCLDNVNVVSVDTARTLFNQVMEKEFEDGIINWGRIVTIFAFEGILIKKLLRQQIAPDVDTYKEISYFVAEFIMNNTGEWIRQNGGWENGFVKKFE

BFL1ΔC L21A, Q16548 [2] = biological target: T1, BFL1ΔC L21A, Q16548; assay: TIRF single-molecule brightness analysis; details: chain shown with the change, 100% CL SLB, 0.5 nM BFL1∆Cg proteins, 1 h at room temperature, read off a plot
[3] = biological target: the molecule itself; assay: single-molecule TIRF brightness analysis; BFL1ΔCg 0.5 nM incubated with LUV 1 h at room temperature, supported lipid bilayers; apoptotic-like membranes
BFL1ΔC R88D, Q16548 [4] = biological target: T2, BFL1ΔC R88D, Q16548; assay: FCCS; details: chain shown with the change; 100% CL GUV; parent: est. 37; read off a plot
T2 chain: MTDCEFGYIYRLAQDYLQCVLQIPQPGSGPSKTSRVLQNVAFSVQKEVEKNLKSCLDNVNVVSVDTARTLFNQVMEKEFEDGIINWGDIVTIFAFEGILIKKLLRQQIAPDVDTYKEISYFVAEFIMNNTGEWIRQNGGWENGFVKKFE

BFL1ΔC R88D, Q16548 [5] = biological target: T2, BFL1ΔC R88D, Q16548; assay: TIRF single-molecule brightness analysis; details: chain shown with the change, 100% CL SLB, 0.5 nM BFL1∆Cg proteins, 1 h at room temperature, read off a plot
[6] = biological target: the molecule itself; assay: SEC; protein in the presence of 100%CL LUV

B2: BFL1ΔC (BFL1 lacking the C-terminal 24 residues, helix α9) (domain or fragment)
chain: MTDCEFGYIYRLAQDYLQCVLQIPQPGSGPSKTSRVLQNVAFSVQKEVEKNLKSCLDNVNVVSVDTARTLFNQVMEKEFEDGIINWGRIVTIFAFEGILIKKLLRQQIAPDVDTYKEISYFVAEFIMNNTGEWIRQNGGWENGFVKKFE
modifications: Alexa 488 (BFL1ΔCg) or Alexa 647 (BFL1ΔCr) label in FCCS, TIRF and GUV imaging, site not stated; unlabelled in SEC
notes: BFL1 (BCL2A1) lacking the C-terminal 24 residues (helix α9, TA motif); Expressed from the vector pNIC28-Bsa4; Labelled (g, r) and unlabelled forms of the same construct are kept as one molecule; the assay's format tells which was used; also called BFL1ΔCg; BFL1ΔCr
stoichiometry N [3]: 2

B4: BFL1ΔC R88D (domain or fragment)
chain: MTDCEFGYIYRLAQDYLQCVLQIPQPGSGPSKTSRVLQNVAFSVQKEVEKNLKSCLDNVNVVSVDTARTLFNQVMEKEFEDGIINWGDIVTIFAFEGILIKKLLRQQIAPDVDTYKEISYFVAEFIMNNTGEWIRQNGGWENGFVKKFE
modifications: Alexa 488 (g) or Alexa 647 (r) label in FCCS, site not stated; unlabelled in SEC and in the GUV retrotranslocation assay
notes: Same construct as m1 with one point mutation; also called BFL1ΔCg R88D; BFL1ΔCr R88D
binding result [6]: binds

Now from value to binder:

other: %CC (cross-correlation, FCCS) (BFL1ΔC L21A, Q16548 [1]): 22%
other: occurrence of monomers (%) (BFL1ΔC L21A, Q16548 [2]; parent: est. 26): 41%
other: occurrence of dimers (%) (BFL1ΔC L21A, Q16548 [2]; parent: est. 73): 57%
B1: BFL1ΔC (BFL1 lacking the C-terminal 24 residues, helix α9), Q16548 L21A (protein)
chain: MTDCEFGYIYRLAQDYLQCVAQIPQPGSGPSKTSRVLQNVAFSVQKEVEKNLKSCLDNVNVVSVDTARTLFNQVMEKEFEDGIINWGRIVTIFAFEGILIKKLLRQQIAPDVDTYKEISYFVAEFIMNNTGEWIRQNGGWENGFVKKFE

other: %CC (cross-correlation, FCCS) (BFL1ΔC R88D, Q16548 [4]): 35%
other: occurrence of monomers (%) (BFL1ΔC R88D, Q16548 [5]; parent: est. 26): 27%
other: occurrence of dimers (%) (BFL1ΔC R88D, Q16548 [5]; parent: est. 73): 71%
B3: BFL1ΔC (BFL1 lacking the C-terminal 24 residues, helix α9), Q16548 R88D (protein)
chain: MTDCEFGYIYRLAQDYLQCVLQIPQPGSGPSKTSRVLQNVAFSVQKEVEKNLKSCLDNVNVVSVDTARTLFNQVMEKEFEDGIINWGDIVTIFAFEGILIKKLLRQQIAPDVDTYKEISYFVAEFIMNNTGEWIRQNGGWENGFVKKFE
